Target: actin (UniProt P68135)
Assay: ITC; Tmod or Lmod construct in the syringe titrated into LatB-actin in the cell (LatB:actin 1.2:1); 20 mM HEPES pH 7.5, 100 mM NaCl, 0.2 mM ATP, 1 mM DTT; temperature and concentrations listed in the figures

Chain of Tmod1_(ABS1) (P28289 whole entry, the tested form may be a part): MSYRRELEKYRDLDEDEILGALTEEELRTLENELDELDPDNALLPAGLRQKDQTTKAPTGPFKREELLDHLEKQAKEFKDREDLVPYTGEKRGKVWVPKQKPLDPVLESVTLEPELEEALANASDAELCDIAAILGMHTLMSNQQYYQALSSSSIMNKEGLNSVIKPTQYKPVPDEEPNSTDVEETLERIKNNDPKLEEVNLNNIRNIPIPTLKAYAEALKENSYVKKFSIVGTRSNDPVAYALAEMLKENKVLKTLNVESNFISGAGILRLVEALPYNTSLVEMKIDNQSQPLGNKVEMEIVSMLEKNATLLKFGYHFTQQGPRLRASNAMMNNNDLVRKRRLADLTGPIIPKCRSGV

## Tmod1_(ABS1) (from UniProt P28289-1 1-359) (domain or fragment)
  stoichiometry N: 1

Reference: article PMC4571291
